Laboratory results: article PMC6712033, “Proteasome subunit α1 overexpression preferentially drives canonical proteasome biogenesis and enhances stress tolerance in yeast” (Scientific Reports, 2019)

Molecular target: T1, proteasome subunit α2-K160C (S. cerevisiae, UniProt P23639 1-250, K160C)
T1 construct: 20S proteasome core particle subunit α2, S. cerevisiae, with an engineered cysteine at the α2-α3 interface; Detected with an anti-His antibody (TetraHis); also called His (α2); source: S. cerevisiae (WT or pba3Δ), in cell extract
T1 sequence (looked up): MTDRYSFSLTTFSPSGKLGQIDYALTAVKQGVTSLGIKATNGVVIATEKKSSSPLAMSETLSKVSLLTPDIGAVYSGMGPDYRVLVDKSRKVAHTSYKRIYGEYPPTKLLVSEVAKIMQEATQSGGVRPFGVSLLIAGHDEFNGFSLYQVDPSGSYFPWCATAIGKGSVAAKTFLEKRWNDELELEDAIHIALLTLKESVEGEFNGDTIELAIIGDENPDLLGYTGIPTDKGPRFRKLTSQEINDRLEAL
Assay: cross-linking; engineered disulfide crosslinking in yeast extracts (WT or pba3Δ, empty vector or α1 overexpressed); 250 µM CuCl2, 25 °C, 10 minutes; 50 mM HEPES pH 7.5, 150 mM NaCl, 5 mM MgCl2, 2 mM ATP; non-reducing SDS-PAGE, anti-His immunoblot; reversed by DTT
Conditions: partners not purified

fold increase in crosslinking (α1 overexpressed against empty vector, pba3Δ cells): 1.76 fold
B1: proteasome subunit α3-L56C (natural protein, S. cerevisiae, UniProt P23638 1-258, looked up)
chain: MGSRRYDSRTTIFSPEGRLYQVEYALESISHAGTAIGIMASDGIVLAAERKVTSTCLEQDTSTEKLYKLNDKIAVAVAGLTADAEILINTARIHAQNYLKTYNEDIPVEILVRRLSDIKQGYTQHGGLRPFGVSFIYAGYDDRYGYQLYTSNPSGNYTGWKAISVGANTSAAQTLLQMDYKDDMKVDDAIELALKTLSKTTDSSALTYDRLEFATIRKGANDGEVYQKIFKPQEIKDILVKTGITKKDEDEEADEDMK
notes: 20S proteasome core particle subunit α3, S. cerevisiae, with an engineered cysteine at the α2-α3 interface; source: S. cerevisiae (WT or pba3Δ), in cell extract
